Source: the supplement of paper PMC10126150
± gives the standard deviation of the averaged measurements.

System: ATP
Experiment: switch fluorescence ratio, 500 uM ATP over buffer (Cy3 cluster intensity, sum of 5 cycles each) (fold (ratio)); higher = stronger signal-on switching upon ATP binding; sequences stand for … in TCGTCGGCAGCGTCAGATGTGTATAAGAGACAGTTTTTTTTTTTTTTTTTTTTTTTTT…TC
Conditions: aptamer strand: ATP DNA aptamer (quencher-CACCTGGGGGAGTATTGCGGAGGAAGG + anchor), 100 nM annealed; ATP concentration: 500 uM
How it was run: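 Values give the fluorescence ratio for each switch-domain sequence, averaged from per-cluster ratios of summed target-cycle to summed buffer-cycle Cy3 intensity. The Cy3-labelled switching-strand clusters sat on a modified Illumina MiSeq flow-cell, were annealed to 100 nM quencher-labelled ATP aptamer, and were imaged in selection buffer, then after 15 min with 500 uM ATP at 22 °C. Five cycles ran with NaOH stripping and re-annealing between them, and clusters outside 100-1000 RFU were excluded.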
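Also: ATP exposure 15 min at 22 °C before imaging.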

Row | Sequence | switch fluorescence ratio
1 | ATTGTGCTGA | 0.9481 ± 0.0073
2 | ATTGTGCTGT | 0.976 ± 0.043
3 | ATTGTGGATA | 0.95 ± 0.022
4 | ATTGTGGGAA | 0.9843 ± 0.0028
5 | ATTGTGGGAG | 0.972 ± 0.017
6 | ATTGTGGGTT | 1 ± 0.021
7 | ATTGTGTGGT | 1.01 ± 0.026
8 | ATTGTTCTGA | 1.01 ± 0.032
9 | ATTGTTGTTA | 0.98517 ± 0.00068
10 | ATTGTTTTGT | 0.987 ± 0.051
11 | ATTTAAAATC | 0.9614 ± 0.0045
12 | ATTTAACGAG | 1.01 ± 0.021
13 | ATTTAAGGGA | 0.982 ± 0.026
14 | ATTTAATACG | 1.02 ± 0.052
15 | ATTTAATTCG | 1.01 ± 0.022
16 | ATTTACCGGA | 1.04 ± 0.052
17 | ATTTACGAT | 1.02 ± 0.049
18 | ATTTACTATA | 1.07 ± 0.0053
19 | ATTTACTGCG | 1.01 ± 0.041
20 | ATTTACTTGT | 1.05 ± 0.094
21 | ATTTAGCGTC | 0.99 ± 0.016
22 | ATTTAGGATT | 1.01 ± 0.018

Row | Sequence | switch fluorescence ratio
23 | ATTTAGGCGT | 1 ± 0.039
24 | ATTTAGGGAT | 1.02 ± 0.051
25 | ATTTAGGGCA | 1.02 ± 0.051
26 | ATTTAGGGGT | 1.02 ± 0.057
27 | ATTTAGGTAG | 1.02 ± 0.024
28 | ATTTAGGTGG | 1.02 ± 0.053
29 | ATTTAGGTTT | 1.01 ± 0.012
30 | ATTTAGTGGG | 0.993 ± 0.048
31 | ATTTATAGAT | 0.979 ± 0.028
32 | ATTTATATCA | 1.01 ± 0.024
33 | ATTTATATCC | 1.02 ± 0.013
34 | ATTTATGTTA | 0.985 ± 0.012
35 | ATTTATGTTG | 1.01 ± 0.031
36 | ATTTATTCCG | 1.01 ± 0.032
37 | ATTTCAAAAG | 0.974 ± 0.023
38 | ATTTCAGATA | 1.01 ± 0.02
39 | ATTTCAGGGA | 0.978 ± 0.024
40 | ATTTCAGTAA | 1.05 ± 0.027
41 | ATTTCAGTAG | 1.016 ± 0.0019
42 | ATTTCAGTTG | 1.011 ± 0.006
43 | ATTTCGGGGA | 0.997 ± 0.042
44 | ATTTCGGGTT | 1.11 ± 0.28

Row | Sequence | switch fluorescence ratio
45 | ATTTCGTTCG | 0.977 ± 0.013
46 | ATTTCTAACT | 1.015 ± 0.0022
47 | ATTTCTCAAT | 1.01 ± 0.03
48 | ATTTCTCTCT | 0.993 ± 0.014
49 | ATTTCTTTTT | 1.03 ± 0.0055
50 | ATTTGAACGT | 0.966 ± 0.085
51 | ATTTGAATA | 0.984 ± 0.022
52 | ATTTGACTTA | 1.03 ± 0.015
53 | ATTTGAGAGC | 0.987 ± 0.017
54 | ATTTGAGCAG | 1.01 ± 0.011
55 | ATTTGATGAG | 0.987 ± 0.045
56 | ATTTGCAACT | 0.994 ± 0.026
57 | ATTTGCGATT | 1.03 ± 0.019
58 | ATTTGCGTTC | 1.01 ± 0.056
59 | ATTTGCTTGT | 1.01 ± 0.021
60 | ATTTGGAAGA | 1.01 ± 0.0048
61 | ATTTGGAAGT | 1.02 ± 0.018
62 | ATTTGGACGG | 0.948 ± 0.026
63 | ATTTGGATAA | 0.9893 ± 0.0066
64 | ATTTGGATGT | 1 ± 0.026
65 | ATTTGGGAAG | 1.01 ± 0.021
66 | ATTTGGGCTG | 0.999 ± 0.015

Row | Sequence | switch fluorescence ratio
67 | ATTTGGGGAG | 1.02 ± 0.048
68 | ATTTGGGGGT | 0.997 ± 0.023
69 | ATTTGGTTGG | 0.987 ± 0.044
70 | ATTTGGTTTC | 0.991 ± 0.025
71 | ATTTGTAGGT | 0.9967 ± 0.0019
72 | ATTTGTCGGC | 1.05 ± 0.051
73 | ATTTGTCGTA | 0.997 ± 0.029
74 | ATTTGTGGGA | 1 ± 0.029
75 | ATTTGTTACG | 1.01 ± 0.046
76 | ATTTGTTGAT | 1 ± 0.021
77 | ATTTGTTGG | 1.029 ± 0.0076
78 | ATTTGTTTCT | 0.9993 ± 0.0079
79 | ATTTGTTTTA | 1.08 ± 0.17
80 | ATTTTAAAGG | 0.977 ± 0.027
81 | ATTTTAAATG | 1.04 ± 0.03
82 | ATTTTAACGC | 1.048 ± 0.0063
83 | ATTTTAATGC | 1.018 ± 0.0019
84 | ATTTTAGAGC | 1.05 ± 0.038
85 | ATTTTAGGAC | 1.03 ± 0.025
